Consider one molecule from patent publication US20240117030A1 (Pfizer, published 2024).

The assay has as its target T1, human IL-12 (p35 + p40) (human, UniProt P29459 23-219; P29460 23-328).
T1 sequence (looked up) 1: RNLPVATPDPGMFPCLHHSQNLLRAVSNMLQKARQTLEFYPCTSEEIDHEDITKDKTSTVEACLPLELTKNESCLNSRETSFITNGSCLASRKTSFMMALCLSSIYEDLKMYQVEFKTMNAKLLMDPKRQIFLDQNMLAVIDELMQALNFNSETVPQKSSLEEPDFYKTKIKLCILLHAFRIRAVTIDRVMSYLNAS
T1 sequence (looked up) 2: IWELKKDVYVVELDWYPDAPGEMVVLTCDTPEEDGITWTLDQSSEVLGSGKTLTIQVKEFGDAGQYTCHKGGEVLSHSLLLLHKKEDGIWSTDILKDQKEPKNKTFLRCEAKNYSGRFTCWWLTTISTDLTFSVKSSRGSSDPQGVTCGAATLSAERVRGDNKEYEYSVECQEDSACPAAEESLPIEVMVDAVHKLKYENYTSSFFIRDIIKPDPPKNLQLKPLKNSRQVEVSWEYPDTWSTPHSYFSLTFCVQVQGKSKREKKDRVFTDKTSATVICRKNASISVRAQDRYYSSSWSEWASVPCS
As to the kind of experiment: cell-based or functional assay.

B1: p40-0003 (antibody, human IgG1, kappa, V domains shown)
VH: EVQLVQSGAEVKKPGESLKISCKGSGYSFTTYWLGWVRQMPGKGLDWIGIMSPVDSDIRYSPSFQGQVTMSVDKSITTAYLQWNSLKASDTAMYYCARRRPGQGYFDFWGQGTLVTVSS
VL: DIQMTQSPSSLSASVGDRVTITCRASQGISSWLAWYQQKPEKAPKSLIYAASSLQSGVPSRFSGSGSGTDFTLTISSLQPEDFATYYCQQYNIYPYTFGQGTKLEIKR
On to B1, for which the “anti-IL12 bioassay IC50” value was 0.286 nM.
